Paper PMC3616739
Several values for one entry are separate records, joined by “and”; a condition that tells them apart may be missing. Identical values can stand only once.

Target: GST-LEDGF PWWP (1–100) (UniProt O75475)
Assay: pull-down

Chain of GST-LEDGF PWWP (1–100) (O75475 1-100): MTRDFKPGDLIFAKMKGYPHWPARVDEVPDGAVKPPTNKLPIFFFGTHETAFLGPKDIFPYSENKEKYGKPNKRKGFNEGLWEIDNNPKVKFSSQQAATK

Substance: native mononucleosomes (MNs) from SupT1 cells (from UniProt P0C0S8;P62807;P68431;P62805) (complex)
- Kd: 232 nM and 102 nM
